According to PMC11758377 (2026):

Target: H3K4me3 peptide (Homo sapiens, UniProt P68431)
Assay: MST

B1: BPTF-PHD PHD (protein)
chain: KLYCICKTPYDESKFYIGCDRCQNWYHGRCVGILQSEAELIDEYVCPQCQST
  Kd: 2900 nM
